Data from article PMC3212559, “Large-Scale Protein-Protein Interaction Analysis in Arabidopsis Mesophyll Protoplasts by Split Firefly Luciferase Complementation” (PLoS ONE, 2011).

What was measured:
Assay in all cases: split reporter (BiFC, NanoBiT); SFLC in living Arabidopsis mesophyll protoplasts: Aux/IAA-FLucN or MYB30-FLucN co-expressed with ARFCTD-FLucC or Aux/IAA-FLucC for 6 hr; 10 µg of each construct, 2×10^4 cells, 96-well plate, D-luciferin; relative activity standardised against ARF5CTD-FLucC + IAA28-FLucN
Conditions in all cases: partners not purified
[1] = biological target: T1, ARF18 C-terminal domain (CTD)-FLucC (Arabidopsis, UniProt Q9C5W9 489-602)
T1 construct: Arabidopsis auxin response factor 18, C-terminal dimerization domain (CTD); In the ARF-ARF tests the same CTD stood both as ARFCTD-FLucC and as ARFCTD-FLucN; one molecule for both; also called ARF18CTD-FLucC; ARFCTD-FLucC; source: Arabidopsis mesophyll protoplasts, transfected, in living cells; not shown: FLucC (firefly luciferase aa 394-550)
T1 sequence (looked up): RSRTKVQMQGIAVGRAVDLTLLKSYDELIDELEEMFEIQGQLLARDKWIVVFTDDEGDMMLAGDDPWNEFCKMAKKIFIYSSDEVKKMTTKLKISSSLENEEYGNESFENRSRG

[2] = biological target: T2, C-terminal domain (CTD) of ARF5-FLucC (Arabidopsis, UniProt P93024 793-902)
T2 construct: In the ARF-ARF tests the same CTD stood both as ARFCTD-FLucC and as ARFCTD-FLucN; one molecule for both; also called ARF5CTD-FLucC; auxin response factor 5; source: Arabidopsis mesophyll protoplasts, transfected, in living cells (SFLC) and in lysate (co-IP); not shown: FLucC (firefly luciferase aa 394-550)
T2 sequence (looked up): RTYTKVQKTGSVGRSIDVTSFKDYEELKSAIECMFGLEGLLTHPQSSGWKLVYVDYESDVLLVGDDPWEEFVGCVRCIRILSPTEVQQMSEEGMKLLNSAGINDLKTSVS

[3] = biological target: T3, IAA9-FLucC (Arabidopsis, UniProt Q38827 1-338)
T3 construct: Arabidopsis Aux/IAA protein IAA9; also called Aux/IAA-FLucC; source: Arabidopsis mesophyll protoplasts, transfected, in living cells; not shown: FLucC (firefly luciferase aa 394-550)
T3 sequence (looked up): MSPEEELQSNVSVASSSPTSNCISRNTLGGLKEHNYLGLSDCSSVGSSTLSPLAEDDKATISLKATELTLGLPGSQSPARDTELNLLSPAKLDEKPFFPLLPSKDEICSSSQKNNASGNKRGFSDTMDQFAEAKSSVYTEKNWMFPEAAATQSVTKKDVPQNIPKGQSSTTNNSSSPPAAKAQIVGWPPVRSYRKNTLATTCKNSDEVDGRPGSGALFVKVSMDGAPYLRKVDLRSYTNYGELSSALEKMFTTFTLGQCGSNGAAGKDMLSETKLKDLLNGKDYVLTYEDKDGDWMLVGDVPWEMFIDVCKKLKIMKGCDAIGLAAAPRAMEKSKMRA

Measured: relative luciferase activity (standardised against ARF5CTD-FLucC + IAA28-FLucN)

B1: MYB30-FLucN (natural protein, UniProt Q9SCU7 1-323, looked up)
chain: MVRPPCCDKGGVKKGPWTPEEDIILVTYIQEHGPGNWRAVPTNTGLLRCSKSCRLRWTNYLRPGIKRGNFTEHEEKMIVHLQALLGNRWAAIASYLPQRTDNDIKNYWNTHLKKKLNKVNQDSHQELDRSSLSSSPSSSSANSNSNISRGQWERRLQTDIHLAKKALSEALSPAVAPIITSTVTTTSSSAESRRSTSSASGFLRTQETSTTYASSTENIAKLLKGWVKNSPKTQNSADQIASTEVKEVIKSDDGKECAGAFQSFSEFDHSYQQAGVSPDHETKPDITGCCSNQSQWSLFEKWLFEDSGGQIGDILLDENTNFF
notes: transcription factor MYB30, the unrelated protein used as negative control; source: Arabidopsis mesophyll protoplasts, transfected, in living cells; not shown: FLucN (firefly luciferase aa 1-398)
< 0.1: [1] | [2] | [3]
